# According to patent US20260274975A1:
# Non-standard residues stand in square brackets, D forms with d. No end group written: not given here.
# Molecular target: Anti-Müllerian hormone Receptor 2 (AMH-R2), protein target applied to the peptide microarray (UniProt Q16671)
# Test: peptide microarray; protein target detected by anti-GST and Alexa Fluor 647 antibody, scanned signal
# Sequence of UniProt Q16671 (Q16671 18-149 limits assumed): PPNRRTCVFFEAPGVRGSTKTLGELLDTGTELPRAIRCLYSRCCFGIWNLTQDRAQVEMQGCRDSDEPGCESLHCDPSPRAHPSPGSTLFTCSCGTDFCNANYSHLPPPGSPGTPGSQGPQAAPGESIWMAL
Binder,Average,Rep 1,Rep 2
EG[dL]QSSAYNNY[dW][dR][dK][dL]V[dA] [AMH receptor binding peptide SEQ ID NO: 17],61200,60200,62200
G[dL]Q[dW]SFANGQ[dW][dR]G[dA][dL]SG [AMH receptor binding peptide SEQ ID NO: 12],63800,64600,62900
NG[dR]SQAHN[dL][dR][dK][dA]GV[dA][dL]S [AMH receptor binding peptide SEQ ID NO: 15],61500,62900,60000
DG[dL]GSV[dL]A[dR][dK]N[dR][dR]D[dA]V[dL] [AMH receptor binding peptide SEQ ID NO: 5],65500,65400,65500
Y[dW]G[dW]SHA[dK][dA]NQFPN[dR][dL][dA] [AMH receptor binding peptide SEQ ID NO: 3],65500,65500,65500

# The next lines start with the values.
Average,Rep 1,Rep 2,Binder
47900,52300,43500,[dK]GSNA[dR][dK]N[dR][dR]D[dA]SGV[dA][dL] [AMH receptor binding peptide SEQ ID NO: 20]
56900,55700,58100,GG[dR]SVSAN[dL]Q[dR]E[dR][dK]V[dA]G [AMH receptor binding peptide SEQ ID NO: 19]
59200,60800,57500,G[dL]Y[dW]SAYNP[dW][dR]HV[dA][dL][dA]S [AMH receptor binding peptide SEQ ID NO: 18]
65500,65500,65400,[dR][dW]G[dA]SN[dK]HFAN[dA]NQ[dR][dA][dL] [NegAMHR2BP (SEQ ID NO: 4)]
